Substitutions are numbered along the chain they refer to.
B1: PEP-1 KI polypeptide (designed binder)
chain: EAMHSFCAFKADDGPCRAAHPRWFFNIFTRQCEEFIYGGCEGNQNRFESLEECKKMCTRD
notes: also called DX88
B2: KKII/3#6 (designed binder)
chain: MHSFCAFKADDGHCKANHQRFFFNIFTRQCEEFSYGGCGGNQNRFESLEECKKMCTRD
notes: also called LACI(K1) variant
B3: KKII/3#9 (designed binder)
chain: B2 chain
notes: also called LACI(K1) variant
B4: KKII/3#1 (designed binder)
chain: B2 chain with N17S, H18L, Q19P, S34I, G39E
notes: also called LACI(K1) variant
B5: KKII/3#3 (designed binder)
chain: B2 chain with S34T
notes: also called LACI(K1) variant
B6: KKII/3#4 (designed binder)
chain: B2 chain with E32Q, S34T, G39A
notes: also called LACI(K1) variant
B7: KKII/3#5 (designed binder)
chain: B2 chain with N17S, H18L, Q19P, S34I
notes: also called LACI(K1) variant
B8: KKII/3#2 (designed binder)
chain: B2 chain with H13P, Q19L
notes: also called LACI(K1) variant
B9: KKII/3#10 (designed binder)
chain: B2 chain with A16G, N17A, Q19L, S34I, G39E
notes: also called LACI(K1) variant

Legend:
human plasmin = human plasmin (human, UniProt P00747 97-810, limits assumed); experiment: protease inhibition, apparent Ki (Ki,app)
human plasmin, sequence (P00747 97-810 limits assumed): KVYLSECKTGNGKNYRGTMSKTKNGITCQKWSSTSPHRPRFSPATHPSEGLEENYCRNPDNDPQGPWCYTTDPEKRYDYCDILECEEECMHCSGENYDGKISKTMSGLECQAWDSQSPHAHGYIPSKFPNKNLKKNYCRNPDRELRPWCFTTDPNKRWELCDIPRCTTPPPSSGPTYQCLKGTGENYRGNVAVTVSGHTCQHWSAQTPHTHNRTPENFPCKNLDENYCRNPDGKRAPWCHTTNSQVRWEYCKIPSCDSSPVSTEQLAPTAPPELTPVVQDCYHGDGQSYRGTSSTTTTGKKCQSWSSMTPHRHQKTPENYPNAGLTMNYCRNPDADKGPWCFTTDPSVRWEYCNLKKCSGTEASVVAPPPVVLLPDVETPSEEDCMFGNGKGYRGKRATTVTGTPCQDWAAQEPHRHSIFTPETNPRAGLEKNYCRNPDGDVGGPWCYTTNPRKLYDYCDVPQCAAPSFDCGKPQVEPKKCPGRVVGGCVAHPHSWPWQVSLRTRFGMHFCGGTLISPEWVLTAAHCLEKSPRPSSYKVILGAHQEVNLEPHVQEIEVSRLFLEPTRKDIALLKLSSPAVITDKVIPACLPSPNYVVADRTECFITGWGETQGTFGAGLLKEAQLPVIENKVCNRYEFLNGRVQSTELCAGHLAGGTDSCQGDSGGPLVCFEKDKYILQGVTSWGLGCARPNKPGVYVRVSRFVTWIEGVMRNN

human plasma kallikrein [1] = target: T1, human plasma kallikrein (human, UniProt P03952 20-638); experiment: protease inhibition, apparent Ki (Ki,app)
T1 sequence (P03952 20-638 limits assumed): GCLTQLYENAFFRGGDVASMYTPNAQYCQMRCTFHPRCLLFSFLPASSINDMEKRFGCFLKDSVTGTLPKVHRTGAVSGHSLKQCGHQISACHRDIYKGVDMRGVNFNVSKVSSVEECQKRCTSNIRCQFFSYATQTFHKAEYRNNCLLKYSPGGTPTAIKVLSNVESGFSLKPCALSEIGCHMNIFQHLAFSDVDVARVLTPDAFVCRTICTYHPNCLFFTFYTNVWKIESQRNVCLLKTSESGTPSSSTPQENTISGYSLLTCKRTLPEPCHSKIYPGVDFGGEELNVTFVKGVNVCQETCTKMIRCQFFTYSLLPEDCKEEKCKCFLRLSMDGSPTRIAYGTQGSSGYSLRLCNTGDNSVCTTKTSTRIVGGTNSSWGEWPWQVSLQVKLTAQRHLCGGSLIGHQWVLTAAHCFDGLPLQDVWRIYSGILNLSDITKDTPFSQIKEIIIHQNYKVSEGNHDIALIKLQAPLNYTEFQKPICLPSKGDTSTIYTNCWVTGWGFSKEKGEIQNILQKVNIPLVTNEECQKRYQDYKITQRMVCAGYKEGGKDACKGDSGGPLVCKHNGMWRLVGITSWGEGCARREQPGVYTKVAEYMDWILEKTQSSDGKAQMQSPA

[2] = target: porcine pancreatic kallikrein (porcine, UniProt P00752 8-246); experiment: protease inhibition, apparent Ki (Ki,app)
porcine pancreatic kallikrein, sequence (P00752 8-246): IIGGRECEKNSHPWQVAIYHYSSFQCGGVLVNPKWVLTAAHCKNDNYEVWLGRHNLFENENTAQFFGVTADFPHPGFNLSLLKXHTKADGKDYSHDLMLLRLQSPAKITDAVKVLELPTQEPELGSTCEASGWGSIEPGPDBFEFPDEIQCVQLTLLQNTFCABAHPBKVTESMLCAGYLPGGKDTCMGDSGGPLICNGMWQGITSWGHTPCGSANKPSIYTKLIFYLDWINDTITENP

human plasma factor XIa = human plasma factor XIa (human, UniProt P03951 19-625); experiment: protease inhibition, apparent Ki (Ki,app)
human plasma kallikrein [3] = target: T1, human plasma kallikrein; experiment: comparison of Ki,app values, reference aprotinin
human plasma kallikrein [4] = target: T1, human plasma kallikrein; experiment: phage display selection

| Binder | binding result (human plasma kallikrein [4]) | other results |
| --- | --- | --- |
| B1 |  | Ki (human plasmin): 140 nM; Ki (human plasma kallikrein [1]): 0.044 nM; Ki [2]: 27000 nM; Ki (human plasma factor XIa): 10 nM; fold higher affinity (Ki,app) than aprotinin (human plasma kallikrein [3]): 1000 fold |
| B2 | binds |  |
| B3 | binds |  |
| B4 | binds |  |
| B5 | binds |  |
| B6 | binds |  |
| B7 | binds |  |
| B8 | binds |  |
| B9 | binds |  |

Reference: patent publication US20040053206A1 (DYAX, published 2004)
